Data published in patent publication US20210388087A1 (Chugai, published 2021).

T1: Human CD3eg linker (human)
T1 construct: Single chain: epsilon and gamma subunits of human CD3 joined by a 29-mer linker, Flag-tag at the C-terminus; also called recombinant human CD3
T1 chain: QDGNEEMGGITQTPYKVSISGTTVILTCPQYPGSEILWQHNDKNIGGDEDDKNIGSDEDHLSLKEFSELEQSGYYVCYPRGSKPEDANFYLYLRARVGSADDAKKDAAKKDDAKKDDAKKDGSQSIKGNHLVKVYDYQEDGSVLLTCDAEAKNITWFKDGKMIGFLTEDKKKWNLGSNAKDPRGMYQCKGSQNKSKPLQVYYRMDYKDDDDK


Target: T1, Human CD3eg linker
Test: Biacore SPR, vs template H183/L072

Binder	fold change of affinity [fold]
H183/L072 VH W33H (antibody, name in Kabat numbering, V domains shown) VH: QVQLVESGGGLVQPGRSLRLSCAASGFTFSNAHMHWVRQAPGKGLEWVAQIKDKGNAYAAYYAPSVKGRFTISRDDSKNSIYLQMNSLKTEDTAVYYCHYVHYASASTVLPAFGVDAWGQGTTVTVSS VL: DIVMTQSPLSLPVTPGEPASISCQASQELVHMNRNTYLHWYQQKPGQAPRLLIYKVSNRFPGVPDRFSGSGSGTDFTLKISRVEAEDVGVYYCAQGTSVPFTFGQGTKLEIK	0
H183/L072 VH W33M (antibody, name in Kabat numbering, V domains shown) VH: QVQLVESGGGLVQPGRSLRLSCAASGFTFSNAMMHWVRQAPGKGLEWVAQIKDKGNAYAAYYAPSVKGRFTISRDDSKNSIYLQMNSLKTEDTAVYYCHYVHYASASTVLPAFGVDAWGQGTTVTVSS VL: DIVMTQSPLSLPVTPGEPASISCQASQELVHMNRNTYLHWYQQKPGQAPRLLIYKVSNRFPGVPDRFSGSGSGTDFTLKISRVEAEDVGVYYCAQGTSVPFTFGQGTKLEIK	0
H183/L072 VH W33N (antibody, name in Kabat numbering, V domains shown) VH: QVQLVESGGGLVQPGRSLRLSCAASGFTFSNANMHWVRQAPGKGLEWVAQIKDKGNAYAAYYAPSVKGRFTISRDDSKNSIYLQMNSLKTEDTAVYYCHYVHYASASTVLPAFGVDAWGQGTTVTVSS VL: DIVMTQSPLSLPVTPGEPASISCQASQELVHMNRNTYLHWYQQKPGQAPRLLIYKVSNRFPGVPDRFSGSGSGTDFTLKISRVEAEDVGVYYCAQGTSVPFTFGQGTKLEIK	0
H183/L072 VH W33K (antibody, name in Kabat numbering, V domains shown) VH: QVQLVESGGGLVQPGRSLRLSCAASGFTFSNAKMHWVRQAPGKGLEWVAQIKDKGNAYAAYYAPSVKGRFTISRDDSKNSIYLQMNSLKTEDTAVYYCHYVHYASASTVLPAFGVDAWGQGTTVTVSS VL: DIVMTQSPLSLPVTPGEPASISCQASQELVHMNRNTYLHWYQQKPGQAPRLLIYKVSNRFPGVPDRFSGSGSGTDFTLKISRVEAEDVGVYYCAQGTSVPFTFGQGTKLEIK	0
H183/L072 VH W33P (antibody, name in Kabat numbering, V domains shown) VH: QVQLVESGGGLVQPGRSLRLSCAASGFTFSNAPMHWVRQAPGKGLEWVAQIKDKGNAYAAYYAPSVKGRFTISRDDSKNSIYLQMNSLKTEDTAVYYCHYVHYASASTVLPAFGVDAWGQGTTVTVSS VL: DIVMTQSPLSLPVTPGEPASISCQASQELVHMNRNTYLHWYQQKPGQAPRLLIYKVSNRFPGVPDRFSGSGSGTDFTLKISRVEAEDVGVYYCAQGTSVPFTFGQGTKLEIK	0
H183/L072 VH W33L (antibody, name in Kabat numbering, V domains shown) VH: QVQLVESGGGLVQPGRSLRLSCAASGFTFSNALMHWVRQAPGKGLEWVAQIKDKGNAYAAYYAPSVKGRFTISRDDSKNSIYLQMNSLKTEDTAVYYCHYVHYASASTVLPAFGVDAWGQGTTVTVSS VL: DIVMTQSPLSLPVTPGEPASISCQASQELVHMNRNTYLHWYQQKPGQAPRLLIYKVSNRFPGVPDRFSGSGSGTDFTLKISRVEAEDVGVYYCAQGTSVPFTFGQGTKLEIK	0
H183/L072 VH W33I (antibody, name in Kabat numbering, V domains shown) VH: QVQLVESGGGLVQPGRSLRLSCAASGFTFSNAIMHWVRQAPGKGLEWVAQIKDKGNAYAAYYAPSVKGRFTISRDDSKNSIYLQMNSLKTEDTAVYYCHYVHYASASTVLPAFGVDAWGQGTTVTVSS VL: DIVMTQSPLSLPVTPGEPASISCQASQELVHMNRNTYLHWYQQKPGQAPRLLIYKVSNRFPGVPDRFSGSGSGTDFTLKISRVEAEDVGVYYCAQGTSVPFTFGQGTKLEIK	0

The remaining lines, values ahead:

fold change of affinity [fold]	Binder
0.1	H183/L072 VH W33Y (antibody, name in Kabat numbering, V domains shown) VH: QVQLVESGGGLVQPGRSLRLSCAASGFTFSNAYMHWVRQAPGKGLEWVAQIKDKGNAYAAYYAPSVKGRFTISRDDSKNSIYLQMNSLKTEDTAVYYCHYVHYASASTVLPAFGVDAWGQGTTVTVSS VL: DIVMTQSPLSLPVTPGEPASISCQASQELVHMNRNTYLHWYQQKPGQAPRLLIYKVSNRFPGVPDRFSGSGSGTDFTLKISRVEAEDVGVYYCAQGTSVPFTFGQGTKLEIK
0.4	H183/L072 VH Y55D (antibody, name in Kabat numbering, V domains shown) VH: QVQLVESGGGLVQPGRSLRLSCAASGFTFSNAWMHWVRQAPGKGLEWVAQIKDKGNADAAYYAPSVKGRFTISRDDSKNSIYLQMNSLKTEDTAVYYCHYVHYASASTVLPAFGVDAWGQGTTVTVSS VL: DIVMTQSPLSLPVTPGEPASISCQASQELVHMNRNTYLHWYQQKPGQAPRLLIYKVSNRFPGVPDRFSGSGSGTDFTLKISRVEAEDVGVYYCAQGTSVPFTFGQGTKLEIK
0	H183/L072 VH W33V (antibody, name in Kabat numbering, V domains shown) VH: QVQLVESGGGLVQPGRSLRLSCAASGFTFSNAVMHWVRQAPGKGLEWVAQIKDKGNAYAAYYAPSVKGRFTISRDDSKNSIYLQMNSLKTEDTAVYYCHYVHYASASTVLPAFGVDAWGQGTTVTVSS VL: DIVMTQSPLSLPVTPGEPASISCQASQELVHMNRNTYLHWYQQKPGQAPRLLIYKVSNRFPGVPDRFSGSGSGTDFTLKISRVEAEDVGVYYCAQGTSVPFTFGQGTKLEIK
0	H183/L072 VH W33Q (antibody, name in Kabat numbering, V domains shown) VH: QVQLVESGGGLVQPGRSLRLSCAASGFTFSNAQMHWVRQAPGKGLEWVAQIKDKGNAYAAYYAPSVKGRFTISRDDSKNSIYLQMNSLKTEDTAVYYCHYVHYASASTVLPAFGVDAWGQGTTVTVSS VL: DIVMTQSPLSLPVTPGEPASISCQASQELVHMNRNTYLHWYQQKPGQAPRLLIYKVSNRFPGVPDRFSGSGSGTDFTLKISRVEAEDVGVYYCAQGTSVPFTFGQGTKLEIK
0	H183/L072 VH W33S (antibody, name in Kabat numbering, V domains shown) VH: QVQLVESGGGLVQPGRSLRLSCAASGFTFSNASMHWVRQAPGKGLEWVAQIKDKGNAYAAYYAPSVKGRFTISRDDSKNSIYLQMNSLKTEDTAVYYCHYVHYASASTVLPAFGVDAWGQGTTVTVSS VL: DIVMTQSPLSLPVTPGEPASISCQASQELVHMNRNTYLHWYQQKPGQAPRLLIYKVSNRFPGVPDRFSGSGSGTDFTLKISRVEAEDVGVYYCAQGTSVPFTFGQGTKLEIK
0	H183/L072 VH W33T (antibody, name in Kabat numbering, V domains shown) VH: QVQLVESGGGLVQPGRSLRLSCAASGFTFSNATMHWVRQAPGKGLEWVAQIKDKGNAYAAYYAPSVKGRFTISRDDSKNSIYLQMNSLKTEDTAVYYCHYVHYASASTVLPAFGVDAWGQGTTVTVSS VL: DIVMTQSPLSLPVTPGEPASISCQASQELVHMNRNTYLHWYQQKPGQAPRLLIYKVSNRFPGVPDRFSGSGSGTDFTLKISRVEAEDVGVYYCAQGTSVPFTFGQGTKLEIK
0	H183/L072 VH W33R (antibody, name in Kabat numbering, V domains shown) VH: QVQLVESGGGLVQPGRSLRLSCAASGFTFSNARMHWVRQAPGKGLEWVAQIKDKGNAYAAYYAPSVKGRFTISRDDSKNSIYLQMNSLKTEDTAVYYCHYVHYASASTVLPAFGVDAWGQGTTVTVSS VL: DIVMTQSPLSLPVTPGEPASISCQASQELVHMNRNTYLHWYQQKPGQAPRLLIYKVSNRFPGVPDRFSGSGSGTDFTLKISRVEAEDVGVYYCAQGTSVPFTFGQGTKLEIK
0.4	H183/L072 VH Y55A (antibody, name in Kabat numbering, V domains shown) VH: QVQLVESGGGLVQPGRSLRLSCAASGFTFSNAWMHWVRQAPGKGLEWVAQIKDKGNAAAAYYAPSVKGRFTISRDDSKNSIYLQMNSLKTEDTAVYYCHYVHYASASTVLPAFGVDAWGQGTTVTVSS VL: DIVMTQSPLSLPVTPGEPASISCQASQELVHMNRNTYLHWYQQKPGQAPRLLIYKVSNRFPGVPDRFSGSGSGTDFTLKISRVEAEDVGVYYCAQGTSVPFTFGQGTKLEIK
